Data taken from patent US20030170230A1 (published 2003).

Target: tetanus toxoid (UniProt P04958 2-1315)
Experiment: ELISA

B1: Sample C: protein from vectors pG31020, pG31030 and pG31027, consisting of FvL-AHECa, FvH-AHECb and ubiquitin-AHECc with a disulfide bridge between AHECa and … (other)
VL: MDIVMTQSQKFMSTSVGDRVSVTCKASQNVGASVAWYQQKPGQSPKILIYSASYRYSGVPDRFTGSGSGTDFTLTISNVQSEDLAEYFCQQYNGYPLTFGAGTKLELRTSDSLRLQQLFRDCEDEETWIREKEPIAASTAMDIGINSDPNSSSVDKLAAALEHHHHHH
VH: MGSGIEGRMASEVQLQQSGPELVKPGASVKMSCKASGYTFTNYIMYWVTQRPGQGLEWIGYIHPYNDDTKYNEKFKDKATLTSDRSSRTAYMELSSLTSEDSAVYYCARKKANFGYGPWFAYWGQGTLVTVSARTKHQALQAEIAGHEPRIKACTQKGNAMVEESLEHHHHHH
chain: not shown
Ka: 4.3e+08 M⁻¹
